Read-outs that look alike come from different tables or passages of the source.
Experiments:
[1] = biological target: RXFP1(1-72), RXFP1 LDLa module and its 32-residue linker (human); test: NMR titration
[2] = biological target: RXFP2(1-65)-ExLink2 (human); test: NMR titration
D42A-RXFP1(1-72) (human) = test: NMR titration
[3] = biological target: RXFP1(1-72), RXFP1 LDLa module and its 32-residue linker (human); test: NMR titration; remark: listed apart in the source
[4] = biological target: RXFP2(1-65), RXFP2 LDLa module and its 26-residue linker (human); test: NMR titration
[5] = biological target: RXFP2(1-65)-ExLink2 (human); test: NMR titration; remark: listed apart in the source
W46A-RXFP1(1-72) (human) = test: NMR titration
[6] = biological target: RXFP1(1-72), RXFP1 LDLa module and its 32-residue linker (human); test: 15N-CPMG relaxation dispersion NMR
[7] = biological target: RXFP1(1-72)-L7K/K17A (human); test: 15N-CPMG relaxation dispersion NMR
[8] = biological target: RXFP1, wild-type receptor expressed on HEK293T cells (human) (UniProt Q9HBX9); test: saturation binding of Europium-labelled ligand on cells
[9] = biological target: RXFP2F11, chimera of the LDLa and GDxxGWxxxF motif (Met1-Phe51) of RXFP2 and the remainder of RXFP1 (human); test: as above

Sequence of UniProt Q9HBX9 (Q9HBX9 whole entry): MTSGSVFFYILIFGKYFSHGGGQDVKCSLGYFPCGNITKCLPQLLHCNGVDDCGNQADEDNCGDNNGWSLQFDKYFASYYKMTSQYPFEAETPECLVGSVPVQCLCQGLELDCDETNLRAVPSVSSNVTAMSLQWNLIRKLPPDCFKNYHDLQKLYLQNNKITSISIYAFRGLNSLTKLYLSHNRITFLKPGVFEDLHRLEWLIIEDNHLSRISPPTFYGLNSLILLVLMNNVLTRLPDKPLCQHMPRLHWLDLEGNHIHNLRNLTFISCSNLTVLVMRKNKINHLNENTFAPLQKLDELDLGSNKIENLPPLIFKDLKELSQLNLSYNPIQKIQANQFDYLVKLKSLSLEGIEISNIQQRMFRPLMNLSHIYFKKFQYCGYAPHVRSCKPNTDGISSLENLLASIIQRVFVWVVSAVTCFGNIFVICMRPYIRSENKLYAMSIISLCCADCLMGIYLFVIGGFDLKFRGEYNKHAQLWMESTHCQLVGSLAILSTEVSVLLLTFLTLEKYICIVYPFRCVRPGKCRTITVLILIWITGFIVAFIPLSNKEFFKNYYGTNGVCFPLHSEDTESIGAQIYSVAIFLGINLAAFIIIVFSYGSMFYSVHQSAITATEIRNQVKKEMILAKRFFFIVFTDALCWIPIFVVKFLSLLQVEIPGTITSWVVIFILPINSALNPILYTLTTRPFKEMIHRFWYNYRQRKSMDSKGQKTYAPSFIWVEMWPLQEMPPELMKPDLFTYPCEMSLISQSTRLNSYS

**Q.** What does the source list for “amidated H2 relaxin (both the A and B-chain C-termini amidated) (ligand)”?
**A.** Kd [1]: 442 µM; Kd [2]: 482 µM; fold decrease in affinity against wild-type RXFP1(1-72) (D42A-RXFP1(1-72) (human)): 4 fold; Kd [3]: 85 µM; Kd [4]: 205 µM; Kd [5]: 171 µM; fold decrease in affinity against wild-type RXFP1(1-72) (W46A-RXFP1(1-72) (human)): 4 fold; Kd [6]: 25 µM; Kd [7]: 30 µM

**Q.** How did the Kd [8] turn out when “H2 relaxin, native recombinant (serelaxin), Europium-labelled for the binding assay (ligand)” was run?
**A.** The Kd was 0.0006 µM.

**Q.** And the Kd [9]?
**A.** The Kd was > 0.02 µM.

Reference: publication doi:10.1101/2021.06.06.446989
